# Results: the supplement of paper PMC10567573
# ± gives the standard deviation.
# Test: protein stability index of a GFP-peptide fusion (GPS, HEK-293T) (PSI 1-6); higher = more stable
# [1] = treatment: DMSO, c terminus: a fixed tail appended
# [2] = treatment: MLN4924 1 uM, 8 h, c terminus: a fixed tail appended
# 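Also: 24-mer peptide tiles fused after GFP, lentivirally expressed, FACS-sorted into six equal bins by GFP/DsRed ratio, decoded by Illumina sequencing, PSI is the read-weighted mean bin number.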
Sequence,"protein stability index (treatment: DMSO, c terminus: native)","protein stability index (treatment: MLN4924 1 uM, 8 h, c terminus: native)",protein stability index [1],protein stability index [2]
VDICHMLVQFCRLGSPRSRGCLW [EHMT1],2.67 ± 0.14,2.71 ± 0.66,,
GTVVALLNVHDLDSEQNGQVTCSI [PCDHGA10],,,2.23 ± 0.34,2.58 ± 0.24
HPGRGLAGRWLWGAQPCLLLPIVP [ADAMTS4],,,2.08 ± 0.7,1.92 ± 0.31
APGDLSATEPATCFPSTQKPTEPS [FBF1],,,5.22 ± 0.22,5.343 ± 0.051
GLPLAASMQEDEQSGRDLQQYQSQ [SEC22B],,,5.34 ± 0.24,5.43 ± 0.3
KEKELSIELANIRDEVAFHTAKCE [MTUS2],,,4.46 ± 0.43,4.37 ± 0.46
GSSSLGFTSSPSPFSSSSPENVED [FCHO1],,,5.38 ± 0.2,5.29 ± 0.19
TSRFGSQCMQPNNIMGIENICELA [NR2F2],,,2.88 ± 0.28,2.74 ± 0.35
FLNFNGMKLFLDCLKEFPEKQELH [ZER1],,,2.29 ± 0.18,2.42 ± 0.18
EDQEGSPPETSLPYKWVVEAANLL [MYBL2],,,3.96 ± 0.18,3.915 ± 0.031
SEIRCDLERQNQEYQVLLDVKARL [KRT36],,,3.38 ± 0.19,3.34 ± 0.2
QDAVDQVKVIMDALDERAKVLHED [TRIM29],,,4.93 ± 0.1,4.93 ± 0.34
FLQRGADTNLGRLEDGQTPLHLSA [ASB7],,,3.61 ± 0.17,3.76 ± 0.26
ERKKVQIRSMDPSALASDRFNLIL [DCAF4],,,2.29 ± 0.16,2.5 ± 0.23
CSNSQEHGAHKHHPIEEAAEEHRE [TRIM43],,,5.51 ± 0.34,5.37 ± 0.27
LDVWLSGGNDLCVWNRKLDLLCKT [WDR41],,,2.28 ± 0.35,2.19 ± 0.31
LWELCHLWLRPEVHTKEQILELLV [ZNF396],,,2.22 ± 0.36,2.31 ± 0.072
KPQDSSQPSDRLMTEKQQEEAEWE [CEP70],,,5.59 ± 0.4,5.45 ± 0.46
IEEGFNPVQASQLEEEFDSDSGLS [NFE2L1],,,5.37 ± 0.25,5.44 ± 0.16
VYGVSKETFLSFLEYLYTDSCCPA [RHOBTB3],,,2.16 ± 0.41,2.1 ± 0.24
QAWVQKHHPENGEETVTMLEDVER [ZNF396],,,5.1 ± 0.32,5.39 ± 0.17
TSSGLATASFRTSKYLLEEWFQNC [TEKT4],,,2.68 ± 0.21,2.7 ± 0.14

Sequence,"protein stability index (treatment: DMSO, c terminus: native)","protein stability index (treatment: MLN4924 1 uM, 8 h, c terminus: native)",protein stability index [1],protein stability index [2]
MKGFSFKEDTLLLIAEVMGEDIPE [C8orf76],,,2.09 ± 0.11,2.21 ± 0.24
LIKDAIVSTQPAMMVNLRACSAPG [C2CD2L],,,2.82 ± 0.26,2.54 ± 0.31
HVINQGMAMYWGTSRWSSMEIMEA [KCNAB2],,,2.67 ± 0.53,2.42 ± 0.21
QDTLELESPSLTSTPVCSQKVVVT [MYBL2],,,4.59 ± 0.18,4.63 ± 0.11
MWYPEIKHFCPRAPVILVGCQLDL [RHOBTB2],,,3.24 ± 0.81,2.77 ± 0.28
VCDESVRKLSSAVRSGIVEYLSLV [PRIM1],,,2.34 ± 0.83,2.1 ± 0.3
CVPVFANMSREPFSTRALVLSILH [SOAT2],,,2.22 ± 0.21,2 ± 0.22
AHFYGVKLEGKVPMHKLFLEMLEA [ESRRA],,,2.46 ± 0.51,2.12 ± 0.034
HQKLEREARICRLLKHPNIVRLHD [CAMK2D],,,2.51 ± 0.22,2.9 ± 0.46
LILESQNWRYATGGWETVFRPVSE [FUT8],,,2.42 ± 0.22,2.29 ± 0.11
DARIGEAEAKRDAGIREAKAKQEK [FLOT1],,,5.5 ± 0.19,5.37 ± 0.19
TTREIRRQEAIYEMSRGEQDLIED [NET1],,,5.25 ± 0.16,5.13 ± 0.17
PRRSLSISKNKKKASNSIISCFNN [FAN1],,,2.79 ± 0.13,3.75 ± 0.29
QELQARLQTVTREKEELLQLSIER [CCDC89],,,4.38 ± 0.35,4.32 ± 0.1
QIKALNNKFASFIDKVRFLEQQNQ [KRT71],,,2.38 ± 0.1,2.59 ± 0.4
RGEVPWSPELGRPHDRSQGDWAPP [ZNF263],,,4 ± 0.19,4.12 ± 0.35
NAQIPELKSDLEKASALNTKIRAL [CD207],,,4.016 ± 0.023,3.86 ± 0.48
CYDPKGDQWNILQTPILEGRSGPG [KLHL14],,,2.53 ± 0.31,2.77 ± 0.43
HGHYSMHCLHSAGHSQPDGAYSSA [DLX1],,,3.48 ± 0.27,3.47 ± 0.23
SVNFDGETIEGAPPLWAASAAGHL [FEM1C],,,3.52 ± 0.23,3.6 ± 0.23
PSGFKHVSHVGWDPQNGFDVNNLD [WAS],,,3.83 ± 0.24,3.79 ± 0.58
ATVWSSNVGRVHRVAKKLQSGLVW [ALDH8A1],,,2.81 ± 0.87,2.24 ± 0.96

Sequence,"protein stability index (treatment: DMSO, c terminus: native)","protein stability index (treatment: MLN4924 1 uM, 8 h, c terminus: native)",protein stability index [1],protein stability index [2]
KEHVPTWLQNTHVYSWPKNKKNIL [TRAF3IP2],,,2.71 ± 0.081,3.43 ± 0.24
PNFMKVIPAVSISYVVYENLKITL [SLC25A25],,,3.2 ± 0.4,3.46 ± 0.52
ALVSAHSEWQRKLEAAEALLTLRN [DMRTC1],,,3.44 ± 0.24,3.57 ± 0.17
NGSLYGQASSERLGLDNRLFGHPG [ADAMTSL2],,,3.17 ± 0.53,3.46 ± 0.25
QPPEMIGPMRPEQFSDEVEPATPE [GAGE1],,,5.03 ± 0.33,5.17 ± 0.17
SKIGSTDNIKYQPKGGQVQIVTKK [MAP2],,,4.37 ± 0.17,4.63 ± 0.18
LEHGSIYIPSSYVDSHHEYPAMTF [ESR2],,,2.19 ± 0.18,2.06 ± 0.56
MAGCRGSLCCCCRWCCCCGERETR [CLCN6],,,2.42 ± 0.28,2.98 ± 0.44
QQRLQGQLCDVSIRVQGREFRAHR [ZBTB22],,,3.34 ± 0.42,3.81 ± 0.5
ELLDEKLLARGTMQPFNYVTLQCL [FEM1A],,,2.56 ± 0.41,2.44 ± 0.57
ACSEDSLFLRCSLRHKDEEEEDDD [DRICH1],,,5.32 ± 0.27,5.24 ± 0.16
GAILTTMLATRNFSGGKSGGNKKS [CAMK2A],,,3.67 ± 0.24,3.63 ± 0.41
DRLLVERIFAQYMVPHNLETTERM [PDS5B],,,2.29 ± 0.31,2.17 ± 0.086
PTPIFAGGANDRWVRSVSFSHDGL [WSB1],,,2.61 ± 0.19,2.99 ± 0.64
IKEQEVCKLQEQLEATVKKLEESK [SASS6],,,5.1 ± 0.27,5.05 ± 0.25
EYAGSNTYEEAAAYIQCQFEDLNK [GNAI1],,,3.95 ± 0.37,4.12 ± 0.5
LSALKHAVLGLYLLVFLILVGIFI [SCARA5],,,2.16 ± 0.63,2.08 ± 0.14
HLTSVTSESEQEFLYKTAGGLIYW [CD207],,,2.33 ± 0.28,2.63 ± 0.33
PGGPRNLKPTASKLGAPLSGLQGL [PDLIM4],,,3.54 ± 0.21,3.54 ± 0.053
VSPGPSRSFKEELLCAVCYDPFRD [TRIM35],,,2.79 ± 0.21,2.91 ± 0.27
RVYNNTLTYGEVRNSKASAYCLDQ [GALNT9],,,2.98 ± 0.16,3.07 ± 0.31
NIPGDVLRAVEQAMGHSQDRLTTF [LRRC45],,,3.09 ± 0.14,3.19 ± 0.078

Sequence,"protein stability index (treatment: DMSO, c terminus: native)","protein stability index (treatment: MLN4924 1 uM, 8 h, c terminus: native)",protein stability index [1],protein stability index [2]
AILVKVQLDALPFFVITMIKIVLI [SLC29A1],,,3.23 ± 0.22,3.23 ± 0.37
SQSWHTESLPVSLGPESWQQIAMD [BCL2L13],,,3.79 ± 0.24,3.93 ± 0.23
LPGSDVSGRLMGSPPVPGPSAALT [FBXO28],,,4.42 ± 0.16,4.6 ± 0.33
AVSQPFRLSSSLQGSAVTLKTSKM [CDC14A],,,3.77 ± 0.3,3.71 ± 0.28
IRVLLAFIVLFLLWPFAWLQVAGL [LPCAT4],,,2.6 ± 0.69,3.14 ± 0.44
KRSSRRVQRHNSFSPNSPQFNVSG [NECAB1],,,4.12 ± 0.19,4.27 ± 0.13
QNLSRSWHDVQVSSAYVKTSEKLG [TPD52L2],,,3.98 ± 0.11,3.82 ± 0.21
MRHLSTGTMTGLAIQYALNIAFSE [MATN2],,,3.08 ± 0.49,3.33 ± 0.25
QITVKALPKPPGTPVVTESTATSI [PTPRD],,,4.62 ± 0.29,4.61 ± 0.091
QCPMRVQKEVAGFVLNRLQYAIIS [CRYL1],,,3 ± 0.78,2.38 ± 1
DSACDESSCIPKAFGNPKFALQGL [IRX6],,,3.62 ± 0.24,3.6 ± 0.23
SLQPRRSIAFRLRLASFDSSGKLI [GMCL1],,,2.62 ± 0.44,2.39 ± 0.27
VSTQPAMMVNLRACSAPGGLVPSE [C2CD2L],,,3.43 ± 0.16,3.5 ± 0.14
MRGFKGDRGPKGEKGEKGDRAGDA [SCARA5],,,5.41 ± 0.25,5.44 ± 0.44
GSQDGHFVLSCSYDGLDCQARQFR [SCNN1D],,,2.52 ± 0.12,2.71 ± 0.29
QLYGDAPGEVVPSGESGLRRRGSD [TMEM40],,,5.13 ± 0.18,5.19 ± 0.25
ETVGGAILDQTTSEDAVGGATLGQ [HDAC6],,,5.29 ± 0.25,5.62 ± 0.25
LDGHTISDLSRSSRGELIPISPST [MYBL2],,,4.14 ± 0.13,4.33 ± 0.3
QLQVTEREEVRGRELTGLKALYET [LMNB1],,,3.68 ± 0.18,3.98 ± 0.38
DGTSPLNTVERYNPQENRWHTIAP [KLHL20],,,4.12 ± 0.26,4.26 ± 0.35
DTLDHIRALDRLQEVPHEGPMCDL [PPP2CA],,,4.76 ± 0.24,4.8 ± 0.066
TLPTLPAKVYVGVKQEIAEMRIPA [NCF4],,,3.36 ± 0.34,3.7 ± 0.39
